Source: the supplement of paper PMC10567573
± gives the standard deviation.

Test: protein stability index of a GFP-peptide fusion (GPS, HEK-293T) (PSI 1-6); higher = more stable
Conditions: c terminus: a fixed tail appended
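Further: 24-mer peptide tiles fused after GFP, lentivirally expressed, FACS-sorted into six equal bins by GFP/DsRed ratio, decoded by Illumina sequencing, PSI is the read-weighted mean bin number.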

Sequence	protein stability index (treatment: DMSO)	protein stability index (treatment: MLN4924 1 uM, 8 h)
YHCPGSPDHQVPYGHDYPRAAYQQ [TRAF3IP2]	3.13 ± 0.45	3.5 ± 0.28
KEERKTEVVMNSQQTPVGTPKDKR [PALM]	5.43 ± 0.32	5.36 ± 0.32
IAWIKDKLLHIYYQNSIDDRLLVE [PDS5B]	2.82 ± 0.36	2.43 ± 0.44
VETLVKKKIPIISNAMLVGDKLKF [ACSBG2]	2.27 ± 0.38	2.61 ± 0.27
FGSQQSPIDVVEKYDPKTQEWSFL [KLHL12]	3.44 ± 0.34	3.65 ± 0.39
MAREHAFNIGLPDNIVNCNEFLCT [ZNF277]	2.94 ± 0.21	2.92 ± 0.57
AFHEPQVGLIQAAQQLLCDEQAPQ [DFFB]	4.64 ± 0.18	4.92 ± 0.18
KFDVLRAIELFHSYRETRRKEGIV [PTPN9]	2.35 ± 0.079	1.91 ± 0.42
LSNQLAVTFREENTIAFRHLFLLG [MCOLN1]	2.48 ± 0.11	2.5 ± 0.18
MAEGSAVSDPQHAARLLRALSSFR [GAN]	3.16 ± 0.28	3.3 ± 0.24
SAGVGRTGVFITLSIVLERMRYEG [PTPRD]	2.08 ± 0.095	2.34 ± 0.28
CHSFISGTAPLNQETAEFFLSLDI [ACSBG2]	3.01 ± 1.4	2.6 ± 1.6
QEYEALLNIKVKLEAEIATYRRLL [KRT18]	2.89 ± 0.28	2.82 ± 0.42
EAYTEHRPEITSRAINLLFDIARI [ZER1]	2.14 ± 0.18	2.01 ± 0.21
ELQREWLGNREALIQFLEQVHQGI [CPN1]	2.76 ± 0.12	2.97 ± 0.3
PAAGLDVTQPCGDCGTIQENWVCL [HDAC6]	2.68 ± 0.25	2.79 ± 0.25
QTEETQETALTLACCGGFLEVADF [ANKRD17]	3.79 ± 0.28	3.96 ± 0.28
APSEGSAEAAPELDLFAMKPPETS [SNAP91]	5.39 ± 0.23	5.47 ± 0.19
IHAELSKLVKKHAAQRSTETALYR [FKBP8]	2.94 ± 0.31	2.69 ± 0.44
AQYSVTGSAVARAVCKATTHEVMG [SNAP91]	3.34 ± 0.088	3.23 ± 0.2
TENRGNEKEFMKGNQLISNNIKFK [CLCN6]	4.43 ± 0.28	4.52 ± 0.11
IEITFSYWDGSGHRRTVKMRKGNT [FAM50A]	2.27 ± 0.25	2.19 ± 0.18
RHDVIVSIVTAAKKDILLVNDHLL [PDS5B]	2.51 ± 0.31	2.29 ± 0.5

Sequence	protein stability index (treatment: DMSO)	protein stability index (treatment: MLN4924 1 uM, 8 h)
ASTSLPTKPTQGASSASEPQGLFV [CLPTM1]	4.42 ± 0.12	4.29 ± 0.48
YFLELTQSFIIPLERYVASLMPLQ [DENND6A]	2.56 ± 0.11	3.15 ± 0.33
KEDIDLIDILWRQDIDLGAGREVF [NFE2L1]	2.75 ± 0.57	3.47 ± 0.88
IIIYLGPMVLMIIVMCVQIKCFHE [CDS2]	3.13 ± 0.53	3.19 ± 0.24
LFGDAFAASPGEAPAASEGAAAPA [SNAP91]	5.07 ± 0.3	5.15 ± 0.15
SRKNATQPPNAEEESGSSSASEEE [INTS3]	5.53 ± 0.12	5.71 ± 0.14
AIHQDPPDECGKTEFTRFLCSSPL [ATE1]	3.78 ± 0.24	3.82 ± 0.17
SSLTADLLSVDAFAAPSPATTASP [SNAP91]	4.65 ± 0.19	4.7 ± 0.083
FHITNDEPIPFWTFLSRILTGLNY [NSDHL]	2.45 ± 0.58	2.2 ± 0.15
CKRNFVAVYDGSSSVEDLKAKFCS [NETO1]	2.78 ± 0.39	2.9 ± 0.36
KLAEAYLNLGPALSAALASSQKQH [C8orf76]	2.68 ± 0.69	2.82 ± 0.97
GPAPPPLPPALVPAGGLAPGGGRG [WAS]	5.09 ± 0.13	5.09 ± 0.18
KCHLWTAMDLGFFVVMGVIGGLLG [CLCN6]	3.14 ± 0.38	3 ± 0.24
VAAAAAATTAATAAATTTTTTSAA [SNAP91]	5.39 ± 0.13	5.34 ± 0.068
KLIATSNKPAVKLLYNRSNNKYSY [KCTD10]	2.23 ± 0.14	2.49 ± 0.23
AAALLSNTTCQTENRLSVFFSVIF [PTGFR]	2.43 ± 0.35	2.33 ± 0.18
SADVVSPSGHSDAQTLAMMLQEQL [PPFIA4]	4.54 ± 0.32	4.97 ± 0.35
LAFVIVLLAHRLRRWHKSRLLQAS [PCDHGA10]	2.15 ± 0.48	2.21 ± 0.38
RYCMQLSQIQGLIGSVEEQLAQLR [KRT16]	2.28 ± 0.45	2.49 ± 0.28
PEGYNLKDEEGRLRDPATITTLRV [PPP2R2B]	4.54 ± 0.062	4.37 ± 0.29
CTKTCGVGVRMRDVKCYQGTDIVR [ADAMTSL2]	3.27 ± 0.4	2.65 ± 0.33
LEESDIDRDGTINLSEFQHVISRS [CIB1]	4.69 ± 0.24	4.75 ± 0.084
REDKATIKCETSPPSSPRTLRLEK [PPFIA4]	5.51 ± 0.18	5.45 ± 0.15

Sequence	protein stability index (treatment: DMSO)	protein stability index (treatment: MLN4924 1 uM, 8 h)
FQREALENSHTNTEVLRNMGFAAK [CHMP4C]	3.59 ± 0.21	4.08 ± 0.28
QGQPDPAPRPGPPAGTPPPTARHF [MOSPD3]	3.77 ± 0.21	3.65 ± 1.1
GDDAPKEEVDTGAVNLIESGACGA [INTS4]	5.5 ± 0.25	5.36 ± 0.18
GGGSLSGGGGSRSISASSARFVSS [KRT15]	4.23 ± 0.47	4.39 ± 0.23
LINHKKAEDTEKKDEPSKYNQQQA [CEP70]	5.4 ± 0.21	5.26 ± 0.38
ERSRDVVDDVSVSLRLWDTFGDHH [RHOBTB2]	3.7 ± 0.14	3.63 ± 0.22
LGEEWSLHKIYLCQSGYFSSMFSG [GMCL1]	2.72 ± 1.1	3.4 ± 0.97
TVPKNDADDESETPEELEEEIPVV [GLT8D2]	5.63 ± 0.12	5.53 ± 0.26
RKVCVGGKRRKDEISVDSLDFSKK [PPP2R2B]	4.33 ± 0.26	4.31 ± 0.27
IQDKLFQVAKREREAATKHSKASL [CHCHD6]	3.86 ± 0.47	4.14 ± 0.22
GADPDSRDFDNNTPLHIAAQNNCP [FEM1A]	4.96 ± 0.39	5.18 ± 0.88
GRRAALYVHWPYCEKRCSYCNFNK [RSAD1]	2.23 ± 0.45	2.96 ± 0.55
MQPEGLKCRMEESNAERGTAEPFP [CBY2]	4.88 ± 0.3	4.69 ± 0.27
HHSLQAHFRPRFHPLPTVIIVNLL [TMEM192]	2.68 ± 0.28	2.35 ± 0.48
MEVLAAETTSQQERLQAIAEKRKR [PALM]	5.15 ± 0.27	5.23 ± 0.32
FCDMDKSLLCLLCSNSQEHGAHKH [TRIM43]	2.49 ± 0.37	3 ± 0.67
LRGAKAFRLPGLSRREREPEPPAA [FCHO1]	4.37 ± 0.28	4.14 ± 0.29
FVESSGGGSSAVGQFVSLDGAGKT [BRF1]	2.94 ± 0.52	3.44 ± 0.58
CPGLRLPGSLAGRRAGPAIWAQGW [AUH]	2.83 ± 0.15	1.82 ± 0.35
KHVEYEVSSQRFKSSVYRRYNDFV [SNX8]	2.35 ± 0.3	2.8 ± 0.39
EGYRVSQALRENTYPFLAMIMLKD [FAF2]	2.36 ± 0.2	2.44 ± 0.29
EARGIRAPPLPDSPQPLASSPGPW [FCHO1]	4.34 ± 0.28	4.31 ± 0.15
VRSLRGEEPVPRERDRDPCGGSGG [LURAP1L]	5.34 ± 0.24	5.35 ± 0.095

Sequence	protein stability index (treatment: DMSO)	protein stability index (treatment: MLN4924 1 uM, 8 h)
AGKLRLLREMCALSFQEELLYWGI [KCNG1]	2.88 ± 0.5	2.34 ± 0.24
STKMDCVWSNWKSQAIDLLYWRDI [RTN1]	2.37 ± 0.34	2.27 ± 0.28
CGFGGGAGSVFGGGFGGGVGGGFG [KRT15]	2.27 ± 0.49	2.77 ± 0.23
ESRLKRSNPLAREIFRRHFRQLCY [ZSCAN9]	2.15 ± 0.25	2.34 ± 0.1
VLTIALPVPVIVSNFNYFYHRETE [KCNA1]	3.02 ± 0.47	3.06 ± 0.41
KDIDMFSMCEHHLVPFVGKVHIGY [GCH1]	2.34 ± 0.76	2.27 ± 0.36
VKRLLRSDAEAVSTRWEVIAEDGT [TAF7L]	3.69 ± 0.3	3.73 ± 0.64
LFDMCGISEAQLKDRETSKVIYDF [WASL]	2.58 ± 0.16	2.7 ± 0.3
RRWHKSRLLQASGGGLTGVSGSHF [PCDHGA10]	2.67 ± 0.21	2.83 ± 0.16
TYRKVMNWKETLVFPPEVPISEKA [STK38L]	3.09 ± 0.29	3.24 ± 0.29
GFAFITFENPADAKNAAKDMNGKS [RBMY1A1]	3.55 ± 0.46	3.68 ± 0.36
DVLLLGNDYIVPRHCPELAEMSRV [HNF4A]	2.65 ± 0.2	2.49 ± 0.3
IPSTQFDAAHPTNVQRLAEPSQML [CTNNB1]	4.24 ± 0.18	4.34 ± 0.09
FTEYQASAFGNVKLVVHDCPVWDI [RHOBTB3]	2.54 ± 0.72	2.46 ± 0.41
AHVGMELQLKQELAMLNAVTEDLR [SCARA5]	3.27 ± 0.27	3.16 ± 0.45
YYGFSESAESQGLDGAGLMGFVPH [ADAMTSL2]	3 ± 0.41	3 ± 0.47
KGNTTLQQLDLRWNNVGLLGGRAL [LRRC45]	2.68 ± 0.034	2.73 ± 0.26
QTNSTKNSAAATSPKGTLPPAALE [CAMK2B]	5.32 ± 0.16	5.22 ± 0.24
CLRVGMLKEGVRLDRVRGGRQKYK [ESRRA]	3.12 ± 0.24	3.42 ± 0.46
KNKPKMNYEKLSRGLRYYYDKNII [ETS1]	2.71 ± 1.1	2.17 ± 0.28
